Earlier results in paper PMC554781.

Biological target: CD200R (Homo sapiens) (UniProt Q8TD46)
Sequence of UniProt Q8TD46 (Q8TD46 25-265): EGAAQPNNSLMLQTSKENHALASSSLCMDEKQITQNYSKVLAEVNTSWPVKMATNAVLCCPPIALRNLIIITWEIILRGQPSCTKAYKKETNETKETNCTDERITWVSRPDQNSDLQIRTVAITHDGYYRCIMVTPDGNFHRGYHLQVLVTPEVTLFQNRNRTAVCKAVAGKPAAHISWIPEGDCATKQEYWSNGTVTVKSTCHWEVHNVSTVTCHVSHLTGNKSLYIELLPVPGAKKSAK

CD200 (from UniProt P41217)
Kd: 500 nM
